Measured values from the nanobody polyreactivity screen of Harvey et al. (2022).

Assay: yeast display, Sf9 membrane polyspecificity reagent, FACS + sequencing; frameworks hold sequencing errors
How it was run: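 Polyreactivity labels are assigned by the sorting gate from which each nanobody was recovered. The gates were low and high (top ~1%), set on anti-HA fluorescence for expression and streptavidin fluorescence for reagent binding. Before sorting, galactose-induced (36–48 hours) yeast display cells were stained for 1 hour at 4 °C with 10% biotinylated, detergent-solubilized Sf9 membrane reagent.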

| Sequence | polyreactivity (PSR sort gate) |
| --- | --- |
| QVQLVESGGGLVQAGGSRRLSCAASGNTIYFYVMGWYRQAPGKERELVAAISSSGGSTYYADSVKGRFTISRDNAKNTVYLQMNSLKPEDTSVYYCAAEMYLSRLRYWYDYWGQGTQVTVSS | high polyreactivity |
| QVQLVESGGGLVQAGGSRRLSCAASGRTFDSYTMGWYRQAPGKERELVADITFTGGSTYYADSVKGRFTISRDNAKNTVYLQMNSLKPDDTAVYYCNADREYKWYFRYDYWGQGTQVTVSS | low polyreactivity |
| QVQLVESGGGLVQAGGSRRLSCAASGSIFATYAIGWYRQAPGKERELVAAISWSGGRTYYADSVKGRFTISRDNAKNTVYLEMNSLKPEDTAVYYCNAVTLLGTRGYGYWGQGTQVTVSS | high polyreactivity |
| QVQLVESGGGLVQAGGSRRLSCAASGSTFSDYAMGWYRQAPGKERELVAAISSSGGRTYYADSVKGRFTISRDNAKNTVYLQMNSLNPEDTAVYYCNARGYARGVSTGYDFWGQGTQVTVSS | high polyreactivity |
| QVQLVESGGGLVQAGGSRRLSCAASGSTFYGYAMGWYRHAPGKEREFVAAITTSGGSTYYADSVKGRFTISRDNAKNTVYLQMNSLKPEDTAVYYCAADGFYYDDGYWGQGTQVTVSS | low polyreactivity |
| QVQLVESGGGLVQAGGSRRLSCAASGYSLRIYAMGWYRQAPGTEMELVAAISRSGGRTFYADSVKGRFTISRDNAKNTVFLQMNSLKQEDTAVYYCAADPRCYDTGRMDYWGQGTQVTVSS | high polyreactivity |
| QVQLVESGGGLVQAGGSRRLSSAASGIILDHNAMGWYRQAPGKERELVAAISSGTRTNYADSVKGRFTISRDNAKNTVYLQMNSLKPEDTAVYYCAATIYRRYPSKSSITSYWGQGTQVTVSS | high polyreactivity |
| QVQLVESGGGLVQAGGSVRLSCAASGRIFGWYAMGCYRPAPGKERELVAAIPWSGDSTYYADSVKGRFTISRDNAKNTVYLQMNSLKPEDTAVYYCNKVRGYPRVAGYYSWGQGTQVTVSS | low polyreactivity |
| QVQLVESGGGLVQAGGSVRLSCAASGSTFLYNAMGWYRQAPGKEREVVAGIRRSGGSTYYADSVKGRFTISRANAKNTVYLQMNSLKPEDTAVYYCAVVPAMYRYRVVTYAYDYWGQGTQVNVSS | low polyreactivity |
| QVQLVESGGGLVQAGGSVRLSCGASGRSFQRYALGWYRQAPGTERELVAAIRWSGGATYGDSVKGRFTISRDNAKNTVYLQMNSLQPEDTAVYYCAAVDRRDPYYPKYNYWGQGTQVTVSS | high polyreactivity |
| QVQLVESGGGLVQAGGSVRLSCGASGSIFLGNSMGWYRQAPGTLRELVAAISSITGSTYYADSVKGRFSISRDIAKNTVYLQMNRLKQEETGVYYCARVPDTEGEYWGQGTQVTVSS | high polyreactivity |
| QVQLVESGGGLVQAGGTLRISCAASGRIYAGYVMGWYRQAPRKERELVAAISGSGAYTYYADSVKGRFTISRDYAKNTVYLQMNRLKPEDSAVYYCAADKPGIFSRFDYWGQGTQVSVSS | low polyreactivity |
| QVQLVESGGGLVQAGGTLRISCAASGSTFLFYAMGWYRQAPGKERELVAAISSSGTSTYYADSVKGRFTISRDNAKNTVYLQMNSLKPEDTACYYCARRGRSLRWKYDYWGQGTQVTVSS | low polyreactivity |
| QVQLVESGGGLVQAGGTLRLSCAASGFTFLDYAMGWYRQAPGKERELVATINWSDVSTYYADSVKGRFTISRDTAKNTVYLQINSLKPEDTAVYYSAVDVLTVGQSNDHWGQGTQVTVSS | high polyreactivity |
| QVQLVESGGGLVQAGGTLRLSCAASGFTFRYYAMGWYRQAPGKERELVAAISRGGTTNYADSVKGRFTISRDNAKNTVYLQMNSLKPEDTAVYYCAARQYYSRVTYDYWGQGTQVTVSS | high polyreactivity |
| QVQLVESGGGLVQAGGTLRLSCAASGIILSRYAMGWYIQAPGKERELVAAITRTTSTSYADSVKGRFTISRDNAKNTFYLQMNILKTEDTEVYYCAAVHYGGTAYYYWGQGTQVNVSS | high polyreactivity |
| QVQLVESGGGLVQAGGTLRLSCAASGITFKRYAMGWYRLAPGKERELVATISRSGGSPYADSVKGRFTISRDNAMNTVYLQMNSLKPEDSAVYYCNAVSQSSEYDYWGEGTQVTVSS | high polyreactivity |
| QVQLVESGGGLVQAGGTLRLSCAASGITFSDYTMGWYRQAPGKERELVDAISTSGGSTYYADSVKGRFTISRDNAKNTVYLQMNSQKPEDTAVYYCAAISAVTLRGYYYWGQRTQVTVSS | high polyreactivity |
| QVQLVESGGGLVQAGGTLRLSCAASGLTFYRYAMGWYRQAPGKERELVATIRSGDGTYYADSVKGRFTISRDNAKNTVYLQMNSLKPEDTAVYYCAAKKVYRVYGRYEYWGQGTQVTVSS | high polyreactivity |
| QVQLVESGGGLVQAGGTLRLSCAASGRIFGVYAMGWSRQAPGKERELVAAIRWSGGSTYYADSVKGRFTISRDNAKTTVYLQMNSLKPEDTAVYYCAAVGGVTRGNQYVRYGYWGQGTQVTVSS | high polyreactivity |

| Sequence | polyreactivity (PSR sort gate) |
| --- | --- |
| QVQLVESGGGLVQAGGTLRLSCAASGRIFGYNDMGWYRQAPGKERELVAAINRTGGSTYYADSVKGRFTISRDNAKNTVYLQMNSLKPEDTAVYYCNADARTKWVQTHTDFITDYDYWGQGTQVTVSS | low polyreactivity |
| QVQLVESGGGLVQAGGTLRLSCAASGRIFVYYTMGWYRQAPGKERELVAAITCSGGSTYYADTVKGRFTISRDNEKNPVYLQMNSLKPEDTAVYYCAADGYADYYGWGYWTEYDYWGQGTQVTVSS | low polyreactivity |
| QVQLVESGGGLVQAGGTLRLSCAASGRTFPLYAMGWYRQAPGKERELVAAISSSGGNTYYADSVKGRFTISRDNAKNTVYLQMNSLKPEDTAVYYCNADVSTNSDRLQLDYWGQGTQVTVSS | low polyreactivity |
| QVQLVESGGGLVQAGGTLRLSCAASGSIFGNYAMGWDRQAPGKERELVAGISKSGGRTYYADSVKGRFTISRDNAKNTVYLQMNSLKPEDTAVYYCNALVTRYQSLDRLGDYWGQGTQVTVSS | high polyreactivity |
| QVQLVESGGGLVQAGGTLRLSCAASGSIFRYYAMGWYRQAPGKERELVASSSRRGGSTYYADSVKGRFTISRDIANITVYGQMNSLKPEDTAVYYCAAYSYVYGERYYYWGQGSQVTVSS | high polyreactivity |
| QVQLVESGGGLVQAGGTLRLSCAASGSTFGPNAMGWYRQAPGKEREVVATIRGSGATTYYADSVKGRFTISRDNAKNTVYLQMNSLKPEDSAVYYCDTAYFSGWYNRYGRATSYDYWGQGTEVTVSS | high polyreactivity |
| QVQLVESGGGLVQAGGTLRLSCAASGSTFIGNAMGWYRQAPGKVRELVATITSGDSKYADSVKGRFTISRDNAKNTVYLQMNSLKPEDTAVYYCNADPWDIGSTFELDYWGQGTQVTVSS | low polyreactivity |
| QVQLVESGGGLVQAGGTLRLSCAASGSTFPKYGMGWYRQAPGKEREFVARINWNGGGTYYADSVKGRFTISRDNAKNTVYLHMNSLKPEDTAVYYCNARKRGARFILGYDYWGQGTQVTVSS | low polyreactivity |
| QVQLVESGGGLVQAGGTLRLSCAASGSTFPPYAMGWYRQAPGKERELVAAISWRGSSTYYADSVKGRFTISRDNAKNTVYLQMNSLKPEDTAVYYCNADGGGSYWLYEHGFARDYWGQGTQVTVSS | high polyreactivity |
| QVQLVESGGGLVQAGGTLRLSCAASGSTFRWYAMGWYRQAPGKERELVAAITSSGSTYYADSVKGRFTISRDNAKNTVYLQMNSLKPEDTAVYYCAARAKGYWNTYEHDSWGQGIQVTVSS | low polyreactivity |
| QVQLVESGGGLVQAGGTLRLSCAASGSTFVRNAMGWYRQPPGKERELVAAISVDGSSTYYADSVKGRFTISRDNAKNTVYLQMNSLKPEDTAVYYCNADWDYRDFYDITYDYWGQGTQVTVSS | low polyreactivity |
| QVQLVESGGGLVQAGGTLRLSCAASGYIFPAYVMGWYRQAPGKERELVAAITSGGGTYYADSVKGRFTISRDNAKYTVYLQMNSLKPEDTAVYYCAARYTQRPRRNYWGQGTQVTVSS | high polyreactivity |
| QVQLVESGGGLVQAGGTLRLSCAASGYTFVVYAMGWYRQAPGKERELVASISRSGGSTYYADSVKGRFTISRDNAKNTVYLQMNSLKPEDTAVYYCAADVWRVQHRGYNYWGQGTQVTVSS | high polyreactivity |
| QVQLVESGGGLVQAGGTLRLSCAATGRTFAPNSMGWYRHAPGKERELFAAISWSGTSTYYADSVKGRFTISRDNAKNTVYLQMNSLKPEDTAVYYCAADLEGRVGSPWTYDYWGQGTQVTVSS | low polyreactivity |
| QVQLVESGGGLVQAGGTLRLSCAATGSIFPGNAMGWYRPAPGKERELVAAISGRGGSTYYADSVKGRFTISRDNAKNTVYVQMNSLKPEDTAVYYCAAAPVYRPRDSYDKHRHYYWGQCTQVTVSS | high polyreactivity |
| QVQLVESGGGLVQAGGTLRLSCAATGSTFNINAMGWYRQAPGKERELFAAITRGGTNYADSVKGRFTISRDNAKNTVYLQMNSLKPEDTAVYYCAARGTGGSVKVTSLQQGGYWGQGTQVTVSS | high polyreactivity |
| QVQLVESGGGLVQAGGTLRVSCAASGLIFYGNVMGWYRQAPGKERELVAGISRNSGSTYYADSVKGRFTISRDNANNTVYLQMNSLKPEDTAVYYCAALKFEAWAGEDYWGPGTQVTVSS | low polyreactivity |
| QVQLVESGGGLVQAGGTLRVSCAASGSTFTTNAMGWSRQAPGTERELFATISGGGSTYYADSVQGRFTISRDNAKNTVYLQMNSLKPDDTAVYYCATDVQVPGIGRSVYAYEYLGQGTQVTVSS | low polyreactivity |
| QVQLVESGGGLVQAGRCLRLSCAASGITFVPNAMGWSRQAPGKERELVAAISSGGTYADSVKGRFTISRDNAKNTVYLQMNSLKPEDTALYYCNADTDYIRWIYGYWGQVTQVTVSS | low polyreactivity |
| QVQLVESGGGLVQAGRILRLSCAASGYIFRRYAMGWYRQAPGKERELVAVISSRGGSTYYADSVKGRFTISRDNATKTVYLQMNSLKPEDTAVYYCAARSGSRATFLSDYWGQGNQVTVSS | high polyreactivity |
